Legend:
[1] = biological target: T1, CD3 (CD3-positive Jurkat E6.1 cells) (Homo sapiens, UniProt P07766); test: CD3 binding analysis by FACS on CD3-positive cells; conditions: Table 1
T1 construct: Jurkat E6.1 cells, which express CD3 on the cell surface; endogenous in cells; host or cells: Jurkat E6.1
Procedure: Both cell lines were cultured in RPMI 1640 supplemented with 1% pen/strep and 10% fetal bovine serum at a concentration of 2 × 10^5 to 1 × 10^6 cells/ml. Cells were washed in fresh medium before the experiment and 100,000 cells per well were seeded in a 96-wells plate (duplicate wells). The dilution series of 6 antibodies were made in phosphate-buffered saline (PBS). The antibodies were diluted 10 times in the cell suspension and incubated at 4° C. in the dark for 30 minutes. After incubation, the cells were washed twice in cold PBS / 0.5% BSA, and incubated with anti-HIS-PE (only for 200) or anti-lgG1-PE (for all other compounds) at 4° C., in the dark for 30 minutes. After the second incubation step, the cells were washed twice. 7AAD was added as a live-dead staining. Detection of the fluorescence in the Yellow-B channel (anti-IgG1-PE and anti-HIS-PE) and the Red-B channel (7AAD) was done with the Guava 5HT flow cytometer. Median fluorescence intensity in the Yellow-B channel (anti-IgG1-PE and anti-HIS-PE) in life cells was determined with Kaluza software.

[2] = biological target: CD3 (UniProt P07766); test: flow cytometry on Jurkat E6.1 cells, 1 nM, anti-HIS-PE
Chain of CD3 (P07766 23-207): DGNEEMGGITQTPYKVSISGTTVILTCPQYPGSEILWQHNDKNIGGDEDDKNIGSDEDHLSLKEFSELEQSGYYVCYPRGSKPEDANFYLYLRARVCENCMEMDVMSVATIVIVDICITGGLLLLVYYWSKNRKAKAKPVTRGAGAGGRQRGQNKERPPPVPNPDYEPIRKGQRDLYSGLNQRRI

[3] = biological target: CD3 (UniProt P07766); test: flow cytometry on Jurkat E6.1 cells, 10 nM, anti-HIS-PE
[4] = biological target: CD3 (UniProt P07766); test: flow cytometry on Jurkat E6.1 cells, 100 nM, anti-HIS-PE
[5] = biological target: CD3 (UniProt P07766); test: flow cytometry on Jurkat E6.1 cells, 316 nM, anti-HIS-PE
[6] = biological target: CD3 (UniProt P07766); test: flow cytometry on Jurkat E6.1 cells, 0.32 nM, anti-HIS-PE
[7] = biological target: CD3 (UniProt P07766); test: flow cytometry on Jurkat E6.1 cells, 1000 nM, anti-HIS-PE
[8] = biological target: CD3 (UniProt P07766); test: flow cytometry on Jurkat E6.1 cells, 3.16 nM, anti-HIS-PE
[9] = biological target: CD3 (UniProt P07766); test: flow cytometry on Jurkat E6.1 cells, 31.6 nM, anti-HIS-PE

T1 sequence (P07766 23-207): as above
T1 sequence (P09693 23-182 partner): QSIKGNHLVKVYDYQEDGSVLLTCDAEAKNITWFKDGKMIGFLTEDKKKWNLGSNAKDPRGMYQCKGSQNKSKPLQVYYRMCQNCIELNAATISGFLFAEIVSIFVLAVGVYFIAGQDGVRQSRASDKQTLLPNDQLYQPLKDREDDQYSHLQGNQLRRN
T1 sequence (P04234 22-171 partner): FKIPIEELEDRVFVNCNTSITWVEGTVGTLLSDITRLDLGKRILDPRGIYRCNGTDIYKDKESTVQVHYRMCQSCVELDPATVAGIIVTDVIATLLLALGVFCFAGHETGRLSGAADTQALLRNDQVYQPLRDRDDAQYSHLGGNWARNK
T1 sequence (P20963 22-164 partner): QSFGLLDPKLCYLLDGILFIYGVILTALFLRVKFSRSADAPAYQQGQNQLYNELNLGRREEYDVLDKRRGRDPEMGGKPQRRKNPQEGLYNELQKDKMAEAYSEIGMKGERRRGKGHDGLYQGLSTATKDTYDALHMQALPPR

| concentration-dependent binding to the CD3 positive Jurkat E6.1 cell line [1] | median fluorescence intensity [2] | median fluorescence intensity [3] | median fluorescence intensity [4] | median fluorescence intensity [5] | median fluorescence intensity [6] | median fluorescence intensity [7] | median fluorescence intensity [8] | median fluorescence intensity [9] | Substance |
| --- | --- | --- | --- | --- | --- | --- | --- | --- | --- |
| not | – | – | – | – | – | – | – | – | Rituximab |
| – | 66.2 | 110 | 177 | 224 | 63.6 | 417 | 83.7 | 154 | Humanized OKT3 (hOKT3) with C-terminal sortase A recognition sequence (scFv) |

— US20230364262A1, “VIA CYCLOADDITION BILATERALLY FUNCTIONALIZED ANTIBODIES” (SYNAFFIX B.V., priority 2020, published 2023)
